Laboratory results taken from patent US20200317739.

What was measured:
[1] = test system: FBP1-G345-362K
[2] = test system: FBP1-G364-380K
[3] = test system: FBP1-G364K
[4] = test system: FBP1-G366K
[5] = test system: FBP1-G371K
[6] = test system: FBP1-G374K
[7] = test system: FBP1-G375K
[8] = test system: truncated FBP1^1-371 protein
[9] = test system: truncated FBP1^1-443 protein
[10] = test system: truncated FBP1^185-443 protein
[11] = test system: truncated FBP1^185-644 protein
[12] = test system: truncated FBP1^372-644 protein
[13] = test system: wild-type FBP1 protein

Substance: purified recombinant EV71 viral protease wild-type 2A^pro
- in vitro proteinase cleavage assay (10 ug 2A^pro, 37 C, 4 hours) [1]: in vitro 2A^pro cleavage occurs on mutant FBP1-G345-362K
- in vitro proteinase cleavage assay (10 ug 2A^pro, 37 C, 4 hours) [2]: but not on mutant FBP1-G364-380K
- in vitro proteinase cleavage assay (10 ug 2A^pro, 37 C, 4 hours) [3]: in comparison with FBP1-G364K, FBP1-G366K, FBP1-G374K and FBP1-G375K, FBP1-G371K could not be cleaved by 2A^pro
- in vitro proteinase cleavage assay (10 ug 2A^pro, 37 C, 4 hours) [4]: in comparison with FBP1-G364K, FBP1-G366K, FBP1-G374K and FBP1-G375K, FBP1-G371K could not be cleaved by 2A^pro
- in vitro proteinase cleavage assay (10 ug 2A^pro, 37 C, 4 hours) [5]: FBP1-G371K could not be cleaved by 2A^pro, as shown by the absence of Cp-N and Cp-C cleavage products
- in vitro proteinase cleavage assay (10 ug 2A^pro, 37 C, 4 hours) [6]: in comparison with FBP1-G364K, FBP1-G366K, FBP1-G374K and FBP1-G375K, FBP1-G371K could not be cleaved by 2A^pro
- in vitro proteinase cleavage assay (10 ug 2A^pro, 37 C, 4 hours) [7]: in comparison with FBP1-G364K, FBP1-G366K, FBP1-G374K and FBP1-G375K, FBP1-G371K could not be cleaved by 2A^pro
- in vitro proteinase cleavage assay of truncated FBP1 proteins [8]: both truncated FBP1^1-371 and FBP1^372-644 proteins were not cleaved by 2A^pro
- in vitro proteinase cleavage assay of truncated FBP1 proteins [9]: FBP1^1-443, FBP1^185-644 and FBP1^185-443 containing the Gly-371 cleavage site were cleaved by 2A^pro; a 38-kDa cleavage product was yielded from FBP1^1-443
- in vitro proteinase cleavage assay of truncated FBP1 proteins [10]: FBP1^1-443, FBP1^185-644 and FBP1^185-443 containing the Gly-371 cleavage site were cleaved by 2A^pro; 19-kDa cleavage product
- in vitro proteinase cleavage assay of truncated FBP1 proteins [11]: FBP1^1-443, FBP1^185-644 and FBP1^185-443 containing the Gly-371 cleavage site were cleaved by 2A^pro; 19-kDa cleavage product, and FBP1^185-644 also yielded a 33-kDa product
- in vitro proteinase cleavage assay of truncated FBP1 proteins [12]: both truncated FBP1^1-371 and FBP1^372-644 proteins were not cleaved by 2A^pro
- in vitro proteinase cleavage kinetics of [35S] methionine-labeled FBP1 (data not shown) [13]: Cp-N and Cp-C were detected after 15 minutes of incubation with 2A^pro, and the levels of Cp-N and Cp-C increased over the 4 hours of incubation
- in vitro proteinase cleavage of [35S] methionine-labeled FBP1 (SDS-PAGE, autoradiography) [13]: FBP1 was cleaved by 2A^pro in a dose-dependent manner that resulted in two major Cps, a 38-kDa Cp designated as Cp-N, and a 33-kDa Cp designated as Cp-C
